{"source": "paper PMC10794148", "key": {"[1]": {"molecular_target": "147 bp nucleosome reconstituted with H2B(K125C)-biotin (human) (UniProt P04908)", "assay": "AlphaScreen or HTRF; TR-FRET competition: 15 nM 6×His-Sumo-mcGAS, 2 nM biotin NCP, 4 nM Eu-W1024 streptavidin, 10 nM ULight-anti-6×His; 0–2,000 nM untagged MRN or 0–5,000 nM unlabelled nucleosome; 10 mM Tris-HCl pH 7.5, 50 mM NaCl, 5% glycerol, 0.01% NP-40, 0.01% CHAPS, 5 mM DTT, 100 µg/ml BSA; 1 h at room temperature"}, "[2]": {"molecular_target": "6×His-Sumo tagged mouse cGAS catalytic domain (UniProt Q8C6L5)", "assay": "TR-FRET competition assay", "settings": "unlabelled competitor at the highest titrated concentration, est. ~5,000 nM; signal is residual cGAS-biotin-NCP TR-FRET (lower = more competition); parent: est. 0.16; read off a plot"}, "[3]": {"molecular_target": "human nucleosome core particle, wild type, unlabelled (human) (UniProt P04908)", "assay": "native gel or EMSA; 50 or 100 nM 147-bp hNCP with 200 or 50 nM mcGAS-CR and 0–1.2 µM MRN; 20 mM HEPES pH 7.5, 50 mM NaCl, 5% sucrose, 1 mM DTT; on ice; gel scanned for mcGAS-CR fluorescence, then ethidium bromide"}}, "note": "Values joined by “and” are separate entries in the source; they are usually repeats but may differ in a detail not shown here. Equal entries are not always repeated.", "data": [{"substance": "untagged MRN complex (mixture of 2 unlabelled MR:1 NBS1–Flag) (from UniProt P49959 1-708; Q92878 1-1312; O60934 1-754)", "values": [{"measurement": "percent reduction of the cGAS–NCP TR-FRET signal at plateau", "setting": "[1]", "result": 50, "unit": "%"}]}, {"substance": "human nucleosome core particle, wild type, unlabelled (from UniProt P04908;P62807;Q71DI3;P62805) H2A:E61A; H2A:E64S; H2A:N68A; H2A:D72S; H2A:N89A; H2A:D90A; H2A:E91S", "values": [{"measurement": "response (normalized fluorescence)", "setting": "[2]", "result": 0.63}]}, {"substance": "carboxyrhodamine-labelled mouse cGAS catalytic domain (from UniProt Q8C6L5 141-507) (domain or fragment)", "values": [{"measurement": "stoichiometry N", "setting": "[3]", "result": "1 cGAS per NCP and 2 cGAS per NCP"}]}]}
